Numbering of substitutions follows the chain as printed.
B1: AC10 H1/L0 full length antibody (antibody, V domains shown)
VH: QIQLVQSGPEVKKPGASVKVSCKASGYTFTDYYITWVRQAPGQGLEWMGWIYPGSGNTKYNEKFQGRVTITVDTSASTAYMELSSLRSEDTAVYFCANYGNYWFAYWGQGTLVTVSS
VL: DIVLTQSPASLAVSLGQRATISCKASQSVDFDGDSYMNWYQQKPGQPPKVLIYAASNLESGIPARFSGSGSGTDFTLNIHPVEEEDAATYYCQQSNEDPWTFGGGTKLEIK
B2: AC10 H2/L0 full length antibody (antibody, V domains shown)
VH: QIQLVESGGGLVKPGGSLRLSCAASGYTFTDYYITWVRQAPGQGLEWMGWIYPGSGNTKYNEKFQGRVTMTVDTSTSTAYMELSSLRSEDTAVYFCANYGNYWFAYWGQGTLVTVSS
VL: B1 VL
B3: AC10 H3/L3 full length antibody (antibody, V domains shown)
VH: B1 VH with V68F, T69V, I70F, T71S, M81L, E82Q, L83I, R87K, S88A
VL: B1 VL with A9D, Q17E, S22N, N78T, H80N, P81S, V82L, E84A, L108V
B4: AC10 H3/L2 full length antibody (antibody, V domains shown)
VH: B1 VH with V68F, T69V, I70F, T71S, M81L, E82Q, L83I, R87K, S88A
VL: DIVLTQSPSSLSASVGDRVTITCRASQSVDFDGDSYMNWYQQKPGQPPKVLIYAASNLESGIPARFSGSGSGTDFTLTISSLQPEDFATYYCQQSNEDPWTFGGGTKVEIK
B5: AC10 H0/L3 full length antibody (antibody, V domains shown)
VH: QIQLQQSGPEVVKPGASVKISCKASGYTFTDYYITWVKQKPGQGLEWIGWIYPGSGNTKYNEKFKGKATLTVDTSSSTAFMQLSSLTSEDTAVYFCANYGNYWFAYWGQGTQVTVSA
VL: B1 VL with A9D, Q17E, S22N, N78T, H80N, P81S, V82L, E84A, L108V
B6: AC10 H3/L0 full length antibody (antibody, V domains shown)
VH: B1 VH with V68F, T69V, I70F, T71S, M81L, E82Q, L83I, R87K, S88A
VL: B1 VL
B7: AC10 H2/L3 full length antibody (antibody, V domains shown)
VH: B2 VH
VL: B1 VL with A9D, Q17E, S22N, N78T, H80N, P81S, V82L, E84A, L108V
B8: AC10 H1/L1 full length antibody (antibody, V domains shown)
VH: B1 VH
VL: B4 VL with S9A, S10T, A13L, V15P, D17E, V19A, I21L, T22S
B9: AC10 H3/L1 full length antibody (antibody, V domains shown)
VH: B1 VH with V68F, T69V, I70F, T71S, M81L, E82Q, L83I, R87K, S88A
VL: B4 VL with S9A, S10T, A13L, V15P, D17E, V19A, I21L, T22S
B10: AC10 H1/L2 full length antibody (antibody, V domains shown)
VH: B1 VH
VL: B4 VL
B11: AC10 H2/L1 full length antibody (antibody, V domains shown)
VH: B2 VH
VL: B4 VL with S9A, S10T, A13L, V15P, D17E, V19A, I21L, T22S
B12: AC10 H2/L2 full length antibody (antibody, V domains shown)
VH: B2 VH
VL: B4 VL
B13: AC10 H0/L2 full length antibody (antibody, V domains shown)
VH: B5 VH
VL: B4 VL
B14: AC10 H0/L1 full length antibody (antibody, V domains shown)
VH: B5 VH
VL: B4 VL with S9A, S10T, A13L, V15P, D17E, V19A, I21L, T22S
B15: C225 L2/H5 full length antibody (antibody, IgG1, V domains shown)
VH: QVQLQQSGPGLVKPSQTLSLTCTVSGFSLTNYGVHWVRQAPGKGLEWLGVIWSGGNTDYNTPLTSRLTINKDNSKSQVVLQMNSLRAEDTAVYYCARALTYYDYEFAYWGQGTLVTVSS
VL: DILLTQSPATLSLSPGERVTLSCRASQSIGTNIHWYQQKPDQSPKLLIKYASESISGIPSRFSGSGSGTDFTLTISSLQPEDFADYYCQQNNNWPTTFGAGTKLEIK
B16: C225 L3/H4 full length antibody (antibody, IgG1, V domains shown)
VH: QVQLQQSGPGLVKPSQTLSLTCTVSGFSLTNYGVHWVRQAPGKGLEWLGVIWSGGNTDYNTSLKSRLTISKDNSKSQVVLTMTNMDPVDTATYYCARALTYYDYEFAYWGQGTLVTVSS
VL: B15 VL with A9S, T10S, L13A, P15V, E17D, L21I, S22T, P80A, F83V, D85V
B17: C225 L0/H3 full length antibody (antibody, IgG1, V domains shown)
VH: B15 VH with P62S, T64K, N70S
VL: not shown
B18: C225 L2/H8 full length antibody (antibody, IgG1, V domains shown)
VH: QVQLVESGGGLVQPGRSLRLSCAVSGFSLTNYGVHWVRQAPGKGLEWVSVIWSGGNTDYNTSVKGRFTISKDNSKSTVYLQMNSLRAEDTAVYYCARALTYYDYEFAYWGQGTLVTVSS
VL: B15 VL
B19: C225 L0/H6 full length antibody (antibody, IgG1, V domains shown)
VH: B15 VH with L48V, P62S, L63V, T64K, S65G, L67F, N70S, V79Y
VL: not shown
B20: C225 L0/H5 full length antibody (antibody, IgG1, V domains shown)
VH: B15 VH
VL: not shown
B21: C225 L4/H3 full length antibody (antibody, IgG1, V domains shown)
VH: B15 VH with P62S, T64K, N70S
VL: DILLTQSPAFLSVTPGEKVTITCRASQSIGTNIHWYQQKPDQSPKLLIKYASESISGIPSRFSGSGSGTDFTLTINSLEAEDAATYYCQQNNNWPTTFGAGTKLEIK
B22: C225 L2/H6 full length antibody (antibody, IgG1, V domains shown)
VH: B15 VH with L48V, P62S, L63V, T64K, S65G, L67F, N70S, V79Y
VL: B15 VL
B23: C225 L0/H7 full length antibody (antibody, IgG1, V domains shown)
VH: QVQLQQSGPGLVKPSQTLSLTCTVSGFSLTNYGVHWVRQPPGKGLEWIGVIWSGGNTDYNTSLKSRVTISKDNSKSQVSLKLSSVTAADTAVYYCARALTYYDYEFAYWGQGTLVTVSS
VL: not shown
B24: C225 L0/H4 full length antibody (antibody, IgG1, V domains shown)
VH: B16 VH
VL: not shown
B25: C225 L3/H3 full length antibody (antibody, IgG1, V domains shown)
VH: B15 VH with P62S, T64K, N70S
VL: B15 VL with A9S, T10S, L13A, P15V, E17D, L21I, S22T, P80A, F83V, D85V
B26: C225 L2/H7 full length antibody (antibody, IgG1, V domains shown)
VH: B23 VH
VL: B15 VL
B27: C225 L0/H8 full length antibody (antibody, IgG1, V domains shown)
VH: B18 VH
VL: not shown

target: T1, CD30 fused to the Fc region of IgG1 (R&D Systems) (UniProt P28908 19-379); assay: SPR, CD30-Fc on Protein A chip
T1 sequence (looked up): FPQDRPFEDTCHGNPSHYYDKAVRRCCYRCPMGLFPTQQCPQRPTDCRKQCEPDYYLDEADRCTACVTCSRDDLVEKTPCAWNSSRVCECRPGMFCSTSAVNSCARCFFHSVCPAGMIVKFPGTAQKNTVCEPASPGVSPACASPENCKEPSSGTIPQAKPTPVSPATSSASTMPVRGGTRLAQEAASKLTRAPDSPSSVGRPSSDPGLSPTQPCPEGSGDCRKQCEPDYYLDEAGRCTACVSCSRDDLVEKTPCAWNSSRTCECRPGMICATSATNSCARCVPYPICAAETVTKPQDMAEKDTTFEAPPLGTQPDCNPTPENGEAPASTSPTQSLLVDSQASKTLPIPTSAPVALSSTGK

Row | Binder | Fold KD vs WT | Kd
1 | B1 | 0.53 fold | 6.39 nM
2 | B2 | 0.42 fold | 8 nM
3 | B3 | 1.45 fold | 2.33 nM
4 | B4 | 1.19 fold | 2.86 nM
5 | B5 | 1.13 fold | 3 nM
6 | B6 | 1.1 fold | 3.08 nM
7 | B7 | 0.5 fold | 6.75 nM
8 | B8 | 0.6 fold | 5.63 nM
9 | B9 | 1.39 fold | 2.44 nM
10 | B10 | 0.45 fold | 7.55 nM
11 | B11 | 0.36 fold | 9.49 nM
12 | B12 | 0.57 fold | 5.95 nM
13 | B13 | 0.97 fold | 3.48 nM
14 | B14 | 1.03 fold | 3.29 nM

target: EGFR extracellular domain (R&D Systems) (UniProt P00533 25-645, limits assumed); assay: SPR, full length antibody over EGFR chip

Row | Binder | binding result
15 | B15 | binds
16 | B16 | binds
17 | B17 | binds
18 | B18 | binds
19 | B19 | binds
20 | B20 | binds
21 | B21 | binds
22 | B22 | binds
23 | B23 | binds
24 | B24 | binds
25 | B25 | binds
26 | B26 | binds
27 | B27 | binds

target: T2, human CD30 (commercial, conjugated to digoxigenin) (human, UniProt P28908 19-379, limits assumed, conjugated to digoxigenin (DIG)); assay: AlphaScreen competition vs biotin-WT AC10
T2 sequence (looked up): T1 sequence (looked up)

Row | Binder | Fold IC50 vs WT | IC50
28 | B1 | 0.32 fold | 9.77 nM
29 | B2 | 0.16 fold | 19.4 nM
30 | B3 | 1.59 fold | 1.99 nM
31 | B4 | 0.48 fold | 6.57 nM
32 | B5 | 0.69 fold | 4.61 nM
33 | B6 | 0.51 fold | 6.18 nM
34 | B7 | 0.12 fold | 27.2 nM
35 | B8 | 0.11 fold | 27.7 nM
36 | B9 | 0.52 fold | 6.09 nM
37 | B10 | 0.07 fold | 45.3 nM
38 | B11 | 0.06 fold | 55.1 nM
39 | B12 | 0.06 fold | 49.2 nM
40 | B13 | 0.41 fold | 7.81 nM
41 | B14 | 0.61 fold | 5.19 nM

— patent publication US7657380
